Measurements taken from patent publication US20250032605A1 (GENERAL HOSPITAL, published 2025).

Tests used:
[1] = biological target: T1, SARS-2 RBM^hg RBD construct (SARS-2 RBD with engineered glycans at 448, 475, 494 and 501) (SARS-CoV-2 (engineered), UniProt P0DTC2 319-529); assay: BLI with recombinant Fabs, drawn table of KD (µM), column ΔRBM
[2] = biological target: T1, SARS-2 RBM^hg RBD construct (SARS-2 RBD …); assay: BLI with recombinant Fabs, drawn table of KD (µM)

Row | Binder | Kd [1] [µM] | Kd [2] [µM]
1 | Ab19 Fab (Fab, V domains shown) VH: QVQLQQSGAELARPGASVKLSCKASGYPFTSYGINWVKQRTGQGLEWIGEIYPRIGNTYYNEKFKGKATLTADKSSSTAYMEFRSLTSEDSAVYFCARSWNSNYGEYYFDYWGQGTTLTVS VL: DIVMTQSHKFMSTSIGDRVSITCKASHDVSTAVAWYQQKPGQSPKLLIYWASTRHTGVPDRFTGSGSGTDYTLTIRSVQAEDLALYYCQQHYSTPYTFGGGTKLEIK | > 100 | > 100
2 | Ab15 Fab (Fab, V domains shown) VH: EVQLQQSGPELVKPGASVKISCKASGYSFTGYYMNWVKQSPEKSLEWIGEINPNFGGTTYNQKFKAKATLTVDKSSSTAYMQLKSLTSEDSAVYYCARYYGNLYAMDYWGQGTSVTVS VL: DILMTQSPSSMSVSLGDTVSITCHASQGISSNIGWLQQKPGKSFKGLIYHGTNLEDGVPSRFSGSGSGAAYSLTISSLESEDFADYYCVQYTHFPYTFGGGTKLEIK | 1.3 | 1.3
3 | Ab17 Fab (Fab, V domains shown) VH: EVQLQQSGPELVKPGASVKISCKASGYSFTDYYMNWVKQSPEKSLEWIGEINPNTGGTTYNQKFKAKATLTVDKSSSTAYMQLKSLTSEDSAVYYCARYYGNLYAMDYWGQGTSVTVSS VL: DILMTQSPSSMSVSLGDTVSITCHASQGISSNIGWLQQKPGKSFKGLIYHGTNLEDGVPSRFSGSGSGADYSLTISSLESEDFADYYCVQYVQFPYTLGGGTKLEIK | – | 0.1
4 | Ab16 Fab (Fab, V domains shown) VH: EVQLQQSGPELVKPGASVKISCKASGYSFNNYYMNWVKQSPEKSLEWIGEINPNSGYTSYNQKFRAKATLTVDKSSTTAYMQLKSLTSEDSAVYYCARYFGNLFAMDFWGQGTSVTVS VL: DILMTQSPSSMSVSLGDTVSITCHASQGIGSNIGWLQQKPGKSFKGLIYLGTNLEDGVPSRFSGSGSGADYSLTISSLESEDFADYYCVQYVQFPYTFGGGTKLEIK | – | 0.16
5 | Ab20 Fab (Fab, V domains shown) VH: EVQLQQSGPELVKPGASVKISCKASGFSFTGYSMNWMKQSPEKSLEWIGEINPTTGGTTYNQKFKAKATLTVDKSSSTAYIQLKSLTSEDSAVYYCARGRADYWGQGTTLTVSS VL: DIVLTQSPASLAVSLGQRATISCRASESVEYYGTGLVQWFQQKPGQPPKLLIYAASNVESGVPARFSGSGSGTDFSLNIHSVEEDDIAMYFCHQSRKLPWTFGGGTKLEIK | > 100 | > 100
